The record followed here is article PMC11005723, “Development of Complementary Photo‐arginine/lysine to Promote Discovery of Arg/Lys hPTMs Interactomes” (Advanced Science, 2024).

For the assay, the target named is PHD domain of UHRF1 (UHRF1PHD). The assay is described as follows: ITC; 25 °C, MicroCal PEAQ-ITC; protein in the cell titrated with 19 injections of peptide.

Non-standard residues stand in square brackets, D forms with d. Primed or numbered codes have the meaning given here. No end group written: not given here. *: point of attachment. R(dz)″ = photo-arginine carrying a diazirine photo-crosslinker; Biotin = O=C1N[C@H]2[C@H](CS[C@H]2CCCCC(=O)*)N1

A[R(dz)″]TKQTARKSTGGK(Biotin)A-NH2 [H3K4‐R2dz (probe 1)] displayed a Kd of 10.6 µM.
